Assay results from the supplement of paper PMC9876800.

System: peptide library, one residue held at a place counted from the S/T acceptor
Experiment: relative phosphorylation of the sub-library (ratio to the mean residue at this position); higher = residue favoured
In short: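 Relative sub-library phosphorylation is a ratio to the mean residue at the same position. Purified recombinant kinases were incubated under kinase-specific conditions with biotinylated degenerate peptide sub-libraries, each fixing one residue at one position around a central Ser/Thr, using 50 μM peptide and 50 μM ATP spiked with γ-32P-ATP for 90 min. Spots captured on streptavidin membranes were phosphorimaged and quantified by densitometry.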

PLK2, construct: aa57-360, human, sequence (Q9NYY3 57-360, looked up): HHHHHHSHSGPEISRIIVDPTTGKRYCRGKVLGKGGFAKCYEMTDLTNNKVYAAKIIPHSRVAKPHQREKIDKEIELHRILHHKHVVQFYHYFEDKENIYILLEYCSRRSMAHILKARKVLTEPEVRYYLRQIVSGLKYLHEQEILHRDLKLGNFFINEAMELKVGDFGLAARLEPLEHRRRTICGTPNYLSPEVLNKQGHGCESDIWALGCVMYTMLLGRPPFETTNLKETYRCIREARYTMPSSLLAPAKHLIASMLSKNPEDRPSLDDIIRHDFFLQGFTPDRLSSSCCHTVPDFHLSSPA
STK16, construct: Full length, human, sequence (O75716 whole entry, looked up): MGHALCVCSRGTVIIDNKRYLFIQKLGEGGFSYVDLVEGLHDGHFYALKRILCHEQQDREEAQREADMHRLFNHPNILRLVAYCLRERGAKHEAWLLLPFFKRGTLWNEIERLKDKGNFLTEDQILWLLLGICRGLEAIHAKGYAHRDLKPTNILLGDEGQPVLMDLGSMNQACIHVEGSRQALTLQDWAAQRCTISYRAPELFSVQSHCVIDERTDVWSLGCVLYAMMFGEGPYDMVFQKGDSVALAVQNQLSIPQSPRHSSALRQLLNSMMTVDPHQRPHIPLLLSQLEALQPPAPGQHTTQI

STK16, construct: Full length, human (from UniProt O75716)
relative phosphorylation
Settings	at +1	at +2	at +3	at +4	at -1	at -2	at -3	at -4	at -5
A fixed	0.727	2.01	1.04	1	0.863	1.44	0.99	1.12	1.1
D fixed	0.32	0.668	0.537	0.519	0.334	0.409	0.474	0.885	0.694
E fixed	0.182	0.604	0.496	0.566	0.273	0.36	0.491	0.674	0.581
F fixed	0.531	0.95	0.956	0.888	0.833	0.758	0.672	1.12	0.96
G fixed	4.33	1.26	1.66	1.23	2.16	0.83	0.808	1.13	0.953
H fixed	0.804	0.887	0.982	1.07	2.29	0.75	0.824	0.94	1.06
I fixed	0.534	0.991	0.898	0.982	0.526	1.23	1.98	0.894	0.914
K fixed	1.08	0.844	1.36	1.16	1.4	0.569	0.854	1.06	0.99
L fixed	0.461	0.915	0.81	0.835	0.656	1.03	0.894	0.952	0.868
M fixed	0.447	0.822	0.881	0.875	0.815	1.04	0.85	0.961	0.989
N fixed	2.13	0.787	0.897	0.746	0.737	0.509	0.701	0.798	0.875
P fixed	0.801	1.03	1.03	1.1	1.64	4.27	2.6	1.43	1.54
Q fixed	0.522	1.19	0.974	0.999	0.71	0.676	0.829	0.849	0.96
R fixed	2.08	1.06	1.73	1.31	1.19	0.959	0.963	1.11	1.49
V fixed	0.518	1.06	0.922	0.845	0.677	0.88	1.5	0.963	0.796
W fixed	0.999	0.849	0.853	1.59	0.813	0.601	0.74	1.09	1.13
Y fixed	0.534	1.08	0.98	1.29	1.09	0.695	0.834	1.02	1.1
pThr fixed	0.289	0.402	0.518	0.44	0.352	2.01	0.864	0.838	0.845
pTyr fixed	0.242	0.36	0.605	0.544	0.276	0.401	0.468	0.658	0.65

PLK2, construct: aa57-360, human (from UniProt Q9NYY3)
relative phosphorylation
Settings	at +1	at +2	at +3	at +4	at -1	at -2	at -3	at -4	at -5
A fixed	0.569	0.927	0.69	0.793	0.879	0.734	0.559	0.825	0.975
D fixed	0.52	2.18	2.27	1.98	2.51	3.13	1.77	1.74	1.46
E fixed	0.87	2.23	2.59	2.2	1.61	2.35	7.3	2.19	1.53
F fixed	3.75	0.919	0.861	0.916	0.658	0.508	0.751	1.06	1.37
G fixed	0.529	0.54	0.81	0.842	0.587	0.655	0.583	0.9	1.25
H fixed	0.628	0.999	0.914	0.988	1.16	0.8	0.625	0.888	1.11
I fixed	1.3	0.971	0.835	0.974	0.697	0.558	0.318	0.888	0.806
K fixed	0.452	0.227	0.358	0.442	0.634	0.3	0.292	0.638	0.722
L fixed	1.02	0.707	0.874	0.982	0.701	1.23	0.608	1.11	0.844
M fixed	1.78	1.01	0.85	0.869	0.874	1.24	0.763	0.866	0.842
N fixed	0.567	0.99	1.05	0.866	1.24	1.88	0.687	1	0.955
P fixed	0.159	0.532	0.609	1.07	1.46	0.736	0.482	0.928	0.955
Q fixed	1.2	0.752	0.987	0.877	0.833	0.883	0.717	0.846	0.692
R fixed	0.691	0.438	0.396	0.441	0.79	0.465	0.333	0.609	0.694
V fixed	0.994	0.841	0.765	0.554	0.899	0.391	0.269	0.775	0.757
W fixed	0.683	1.31	1.08	1.24	0.469	0.458	0.48	0.907	0.977
Y fixed	1.28	1.44	1.05	0.968	0.997	0.676	0.459	0.845	1.06
pThr fixed	1.33	2.29	2.39	3.26	1.07	1.08	1.05	1.68	1.04
pTyr fixed	1.4	11	2.89	3.61	4.55	0.912	1.2	1.6	1.63
